The target in the experiment is alcohol dehydrogenase (ADH). In words: cell-based or functional assay.

Consider one substance from patent US20210054048A1.

“CryS96 (αB-crystallin peptide fused with ELP S96)” yielded a decrease in ADH aggregation (optical density at 360 nm, 48° C., 2 h) of 61%.
